This passage reports filter trap density of pre-aggregated SOD1 G93A after 8 µM FAIM for 2.5 hr (fraction of buffer control) results from patent US20230235000A1.

This experiment deals with recombinant mutant SOD1-G93A (His-tag) (human) (UniProt P00441). Nature of the experiment: cell-based or functional assay.
Chain of recombinant mutant SOD1-G93A (His-tag) (human) (P00441 whole entry, stated change not applied): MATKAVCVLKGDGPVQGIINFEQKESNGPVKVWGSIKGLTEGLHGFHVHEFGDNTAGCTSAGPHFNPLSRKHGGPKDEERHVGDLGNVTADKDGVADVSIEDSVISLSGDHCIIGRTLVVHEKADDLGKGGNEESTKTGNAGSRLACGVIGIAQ

In the case of “recombinant human FAIM-S (His-tag) (from UniProt Q9NVQ4 1-179)”, the filter trap density of pre-aggregated SOD1 G93A after 8 µM FAIM for 2.5 hr (fraction of buffer control) worked out at 0.5.
